Results on one molecule are retold here after PMC10778422, “PI3Kδ Inhibition Potentiates Glucocorticoids in B-lymphoblastic Leukemia by Decreasing Receptor Phosphorylation and Enhancing Gene Regulation”.

For this data set, the target named is GR-AF1-DBD unmodified (Homo sapiens, UniProt P04150 27-506). The experiment in a line: EMSA; reference; Kd plotted in figure only; 5 mM Mg2+; EMSA: 20 mM Tris-HCl pH 8.0, 150 mM KCl, 10% glycerol, 5 mM MgCl2, 1 mM DTT, 1 mM EDTA, 200 ng/uL BSA, 40 ng/uL salmon sperm DNA; dsDNA diluted to 10 nM in this buffer; Hill fit; temperature not given. Conditions: protein: recombinant; tags: His6 (pET28a); chain copies: 2; label: Cy5; blunt. (In EMSA bound probe runs differently from free probe, usually more slowly.)
Sequence of GR-AF1-DBD unmodified (P04150 27-506): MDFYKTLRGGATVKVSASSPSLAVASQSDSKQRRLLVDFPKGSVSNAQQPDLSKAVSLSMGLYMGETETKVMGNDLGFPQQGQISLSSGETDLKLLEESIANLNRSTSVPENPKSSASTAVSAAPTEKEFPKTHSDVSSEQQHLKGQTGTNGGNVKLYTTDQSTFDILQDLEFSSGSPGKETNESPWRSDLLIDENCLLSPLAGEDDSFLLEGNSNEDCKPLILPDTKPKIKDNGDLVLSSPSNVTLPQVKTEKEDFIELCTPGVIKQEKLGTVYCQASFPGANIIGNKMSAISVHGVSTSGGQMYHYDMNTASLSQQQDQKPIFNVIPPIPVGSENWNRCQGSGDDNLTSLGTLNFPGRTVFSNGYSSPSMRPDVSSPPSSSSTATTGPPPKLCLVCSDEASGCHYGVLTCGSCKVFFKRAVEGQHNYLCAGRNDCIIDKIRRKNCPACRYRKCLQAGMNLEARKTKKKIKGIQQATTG

B1: consensus GR site (dsDNA)
DNA 1: GTACGGAACATCGTGTACTGTAC
DNA 2: GTACAGTACACGATGTTCCGTAC
Consider B1, for which the binding result is on record as “binds”.
